Test results taken from the DeepSol protein solubility set.

Assay: soluble on expression in E. coli; label from the status in PepcDB or PDB records

Sequence | soluble on expression in E. coli
MNYELLTTENAPVKMWTKGVPVEADARQQLINTAKMPFIFKHIAVMPDVHLGKGSTIGSVIPTKGAIIPAAVGVDIGCGMNALRTALTAADLPENLAELRQAIETAVPHGRTTGRCKRDKGAWENPPFNVDAKWAELEAGYQWLTQKYPRFLNTNNYKHLGTLGTGNHFIEICLDESEQVWIMLHSGSRGIGNAIGTYFIDLAQKEMQDQLETLPSRDLAYFMEGTEYFDDYLRAVAWAQLFASLNRDAMMENVVTALQSITQKTVRQPQTLAMEEINCHHNYVQKEQLFGEEIYVTRKGAVSARAGQYGIIPGSMGAKSFIVRGLGNEESFCSCSHGAGRVMSRTKAKKLFSVEDQIRATAHVECRKDAEVIDEIPMAYKDIDAVMAAQSDLVEVIYTLRQVVCVKG | not soluble
MLSFCPSCNNMLLITSGDSGVYTLACRSCPYEFPIEGIEIYDRKKLPRKEVDDVLGGGWDNVDQTKTQCPNYDTCGGESAYFFQLQIRSADEPMTTFYKCVNCGHRWKEN | not soluble
MYDMINAKYLGKLIFLDFGQTITSLEETSDNSTFFIADEFGNFGSHYVGVVLEQVRSFNTVVILSYQSFANLRNIGGDNFKSQIINNTSTLIAHRLIDMMEAEEVANLYGVDITCASEIKSLKVGQALVRSISSYYGEIKDWLVQQIDKS | soluble
HSHSDKHPVTWQPSKDGDRLIGRILLNKRLKDGSVPRDSGAMLGLKVVGGKMTESGRLCAFITKVKKGSLADTVGHLRPGDEVLEWNGRLLQGATFEEVYNIILESKPEPQVELVVSR | soluble
MGSDKIHHHHHHMNQTTLNTIRNYVMQASAQWISDFNQGNVQTCINRYLPSATMQVHPFGKFTSIEAIADFWLEFAKSNPSDLVYRNIEIKVLNDRQAVLSANWRMNIASGFISKELWTLAEDGQWYLEEDDFTVLAQHTKPVDDKRTALVLVDLQNDYFSGGRFELDNTDSAAKQASQLLAHFRQKELPVIHMQHLFEETNAAFFSANTVGAEIESSVKPTANEPVIIKHQIDSFIETTLEQTLVELGIDNLVIVGAMAQACVQTLCRSAVNKGYKCQVISDAIAAPKLEYQQHSFTGGQLVAANLLSLSFGGADITDTKGWLQENK | not soluble
MGFNNLVSLAALIEKVFPIRYTPAGIPVLDIILKHESWQEENGQQCLVQLEIPARILGRQAEEWQYRQGVYVHVEGFLAQKSRRSLMPMLRIQNIQEYKG | not soluble
MGSPLPFRLTCVWAGEPSMKKAIIFDCEFLCLEGSQRRFWCAAHDPDPVIAQIGAVKLGLEGGFPLLETYKVLISPVDRHGRRYAIDPFFTRLTGITEENIEAEGVPLQDALSSFDSFSEGAQCWSWGKDELNMMAISTYVAGIQPPMPACRFDNAVRLLLAAGMPVEDLAKTPSNSLADYYGVAHPPLQGHDALGDALSVSYALQHLLRSGKLKPEEFTLAA | soluble
MPISTPQEIIEDIRQGKMVILMDDEDRENEGDLIMAAEHITPAAINFMATHGRGLICLTLTKERCRRLGLNPMVQDNNAQYTTNFTVSIEAAEGVTTGISAADRARTVQAAVAKEAKAADLVQPGHIFPLAAQDGGVLTRAGHTEAGCDLARLAGLEPASVIVEILNDDGTMARRPDLEVFAEKHGLKLGTIADLIEYRNHTETTIERVAQCKLPTEYGEFELVTYRDIIDKQIHFALRKGDITSAPTLVRVHLQDTFTDLLHSNRAAERSWPLATAMQRIGQEGGVLVILGHEESSELLLHRVKMFELQDKGEAPAMAKKQGTSRRVGVGSQILADLGVKEMRLLSSPNKKYHALGGFGLNVVEYVCE | not soluble
MIFSKKDIQEVLPADVTGRSVAHPKRWLVALVRISHEKKTSERLSKMGIENFLPVQQEVHQWSDRRKVVERVLLPMMIFVHVDMYEQKEVLTLGSISRYMVLRGESTPAVIPDEQMHRFKFMLDYSDEAINMSTTPLSPGTKIKVIKGPLSGLQGELVTVNGKSKVAVRLTMLGCAFVDIPVGCVEPLEK | not soluble
MAIRLPAEWEEQDGVLIAWPHPGSDWYPWLRLVEPVFAQIVREITRFETALVVAADGERTAALLEAVGARMERVAIVELPTNDTWARDFGPVTVERDGRPVLLDFGFNGWGLKFAADRDNLVTRRLRHLGIFGDIPAEMVGLVLEGGSIESDGRGTVLTTAECLLNPNRNPHLSRAEIEEALARYLGTERVLWLENGFLAGDDTDSHVDTLARLAPDDTIVYVRCDDATDEHYAALFMMEKELANLRTREGSPYRLIPLPWPRACFDHEGQRLPATYANFLVINGAVLVPVYDDPADEAALEAIGRAFPGREIVGIDCRPLIIQHGSLHCVTMQLPKGVLPCPNLEHHHHHH | soluble
GPGSMLRAACCVLSGFPASVSRLFFLSWISLVDTALSFPPPRQTEIAPTRVWAGEGGGGGITALQAVTCPSHSTTCAACAGAGQHPPPPCQPPCRCVRVRVCVVHALLLPPPPSLAILLSCAQTTSTSLPPCFRRQSRARPPPHTHTHIHKHRASCAHHLSLPLLPHMSTAADRQAFLRLMGLTDADVTDPDHQPCAMLHSQTSSSHNVTDKVHRGVKYNSPTASSVAGLSHSASLGGDAIQFSLMNTTNTLRDTSPIVASGPSSSSSRPLFSAPRSVHWEEESIATTSHSSQLPQRAGASGCTAAAISEELKDVGNRSFEAGAFREAVQHYTAAIDALAASTTHSSAEVLLLSALYSNRSAAYLQAAHQMPSVEDAYARALCDADRTVSLRTSWFKGYARQGDAYFKLKRYGAAAEAYEMALQLDPRNKTLMNALSESRQRARHAAREELELRRTMRSTTSTTSSLASSMTGQAGSSTWSEGDPRGGAAASQQAQTLSDVYDGGRRRSGQAQQLWAALKHEVEATVHEVTGDAYRLQQLERFRARCSKGATPTARQAAERKTYVKGVTALASGAPASEPMREASVSGSRFSTATRPDVDVSTAAAAAAAERRHVSSVSPFAATALSSEPHLPPRRRSSASAAFDGPVKNARDVPYEFSSAAASAYQQRLLEEFRKRKATKQ | not soluble
MKLTGKQTWVFEHPIFVNSAGTAAGPKEKDGPLGSLFDKTYDEMHCNQKSWEMAERQLMEDAVNVALQKNNLTKDDIDLLLAGDLLNQNVTANYVARHLKIPFLCMFGACSTSMETVAVASALVDGGFAKRALAATSSHNATAERQFRYPTEYGGQKPDTATSTVTGSGAVVISQTPGDIQITSATVGKVSDLGITDPFDMGSAMAPAAADTIKQHFKDLNRTADDYDLILTGDLSGVGSPIVKDILKEDGYPVGTKHDDCGLLIYTPDQQVFAGGSGCACSAVVTYSHIFKQLREGKLNRVFVVATGALLSPTMIQQKETIPTIAHGVVFERAGGASLEHHHHHH | soluble
GPGSMSAHSAARRWTNLAGIGSCHPRHHHYPTSTKEVQDAVELVRSQNGKCRVAGAGKSPNTATFTNEHLIHMERMNRILSIDTVAHTITCEAGAVMEEVMRSVDKVGLMVRCVPSYVRTTVGGCIATATHSSGIQCHCLSDYVRGLKIVDGCAQIRTLVAGKDDAELRLAACHLGVMGIVTEVTLEVQPRIQWKLVSQPLLMKDATNAALVAEKVKSTEYYRWWWVPHTDGCYESYGRVESTTGISALPPLPDALTAQDDAPVQLSPAALQEESRTNESAERAGDRSISLIVKSALKYIATDFVRHQVVECSLYAACLCPAIQPYVNKAYRRAFFSAPQVQRGSALECFTFDCLFKQWANEWAIDASRAVEAFNRLRDMIDREGMLLHFPVEFRFTAPDVSDMSPAVGRPTCWIGVVMYRPYGQEARDTRRCYDGFCRVMEEMGGRPHWAKYYDWGHREITATYGDHWERFLALRRRMDPDDIFVNGWFRNLMSPDRVNSTACTP | not soluble
VFDRPLFALDFSKCTEKIIQTTELFKELVKEAILLHVVDYGKESEVEENIQKATQKLKEIAEKLDFPSEVVVHSGDASKEILMTAPSVGATLIVIGKRGRNILQLLMGSTAEIVIRNSVLPVLIVP | not soluble
KRRLEVKGEVNSITVYDDFAHHPEAILATLTALRDKVGGGVRILAVLEPRSNTMKMGVHKDDIAPALGRADAVFMLQPEQLSWEVADIANQCVQPAYWNANLDRLVDMIVAKAQPTDHILVMSNGSFGGIHQKILDKLKLK | not soluble
